Source: publication PMC4251995

Assays:
[1] = molecular target: Phosphorylated DesR wild type, full-length (Bacillus subtilis) (UniProt O34723); assay: SAXS
[2] = molecular target: Phosphorylated DesR wild type, full-length (Bacillus subtilis) (UniProt O34723); assay: SEC

- stoichiometry N [1]: 2
- stoichiometry N [2]: 2
Substance: Phosphorylated DesR wild type, full-length (from UniProt O34723 1-199) (natural protein)
